From the RNAGym collection of RNA variant scans (doi:10.1021/acssynbio.7b00057)

B1: Pistol ribozyme (parent)
chain: GGGUCGUUGUUCCAUAAUCGCGUGGAUAUGGCACGCAAGUUUCUACCGGGCACCGUAAAUGUCCGACUGGAGCCGUUCGGGCGGCUAUAAACAGACCUCAGGCCCGAAGCGUGGCGGCACCUGCCGCCGGUGGUAAAAAAGAUCGGAAGAGCACACGUCU

Variants of: B1
Assay: aptazyme ON/OFF ratio, guanine; higher = stronger switching; co-transcriptional cleavage with and without guanine

Point of comparison: GGGUCGUAGAACAAUAAUCGCGUGGAUAUGGCACGCAAGUUUCUACCGGGCACCGUAAAUGUCCGACUGGAGCCGUUCGGGCGGCUAUAAACAGACCUCAGGCCCGAAGCGUGGCGGCACCUGCCGCCGGUGGUAAAAAAGAUCGGAAGAGCACACGUCU [U8A U10A U11A C13A], “aptazyme ON/OFF ratio” value 1.12. Against it:
- GGGUCGGCACUCAAUAAUCGCGUGGAUAUGGCACGCAAGUUUCUACCGGGCACCGUAAAUGUCCGACUGGAGCCGUUCGGGCGGCUAUAAACAGACCUCAGGCCCGAAGCGUGGCGGCACCUGCCGCCGGUGGUAAAAAAGAUCGGAAGAGCACACGUCU [U7G U8C G9A U10C C13A] — lower, 1.07
- GGGUCGGUGUCAAAUAAUCGCGUGGAUAUGGCACGCAAGUUUCUACCGGGCACCGUAAAUGUCCGACUGGAGCCGUUCGGGCGGCUAUAAACAGACCUCAGGCCCGAAGCGUGGCGGCACCUGCCGCCGGUGGUAAAAAAGAUCGGAAGAGCACACGUCU [U7G U11C C12A C13A] — the same, 1.12
- GGGUCGCACCCAUAUAAUCGCGUGGAUAUGGCACGCAAGUUUCUACCGGGCACCGUAAAUGUCCGACUGGAGCCGUUCGGGCGGCUAUAAACAGACCUCAGGCCCGAAGCGUGGCGGCACCUGCCGCCGGUGGUAAAAAAGAUCGGAAGAGCACACGUCU [U7C U8A G9C U10C U11C C12A C13U] — lower, 1.05
- GGGUCGUUUUUAAAUAAUCGCGUGGAUAUGGCACGCAAGUUUCUACCGGGCACCGUAAAUGUCCGACUGGAGCCGUUCGGGCGGCUAUAAACAGACCUCAGGCCCGAAGCGUGGCGGCACCUGCCGCCGGUGGUAAAAAAGAUCGGAAGAGCACACGUCU [G9U C12A C13A] — higher, 1.63
- GGGUCGCCACACGAUAAUCGCGUGGAUAUGGCACGCAAGUUUCUACCGGGCACCGUAAAUGUCCGACUGGAGCCGUUCGGGCGGCUAUAAACAGACCUCAGGCCCGAAGCGUGGCGGCACCUGCCGCCGGUGGUAAAAAAGAUCGGAAGAGCACACGUCU [U7C U8C G9A U10C U11A C13G] — lower, 1.04
- GGGUCGACGCAGCAUAAUCGCGUGGAUAUGGCACGCAAGUUUCUACCGGGCACCGUAAAUGUCCGACUGGAGCCGUUCGGGCGGCUAUAAACAGACCUCAGGCCCGAAGCGUGGCGGCACCUGCCGCCGGUGGUAAAAAAGAUCGGAAGAGCACACGUCU [U7A U8C U10C U11A C12G] — higher, 1.28
- GGGUCGAAAGAAAAUAAUCGCGUGGAUAUGGCACGCAAGUUUCUACCGGGCACCGUAAAUGUCCGACUGGAGCCGUUCGGGCGGCUAUAAACAGACCUCAGGCCCGAAGCGUGGCGGCACCUGCCGCCGGUGGUAAAAAAGAUCGGAAGAGCACACGUCU [U7A U8A G9A U10G U11A C12A C13A] — lower, 1.02
- GGGUCGAUUAGGCAUAAUCGCGUGGAUAUGGCACGCAAGUUUCUACCGGGCACCGUAAAUGUCCGACUGGAGCCGUUCGGGCGGCUAUAAACAGACCUCAGGCCCGAAGCGUGGCGGCACCUGCCGCCGGUGGUAAAAAAGAUCGGAAGAGCACACGUCU [U7A G9U U10A U11G C12G] — higher, 1.18
- GGGUCGAUAUAGGAUAAUCGCGUGGAUAUGGCACGCAAGUUUCUACCGGGCACCGUAAAUGUCCGACUGGAGCCGUUCGGGCGGCUAUAAACAGACCUCAGGCCCGAAGCGUGGCGGCACCUGCCGCCGGUGGUAAAAAAGAUCGGAAGAGCACACGUCU [U7A G9A U11A C12G C13G] — higher, 1.16
- GGGUCGCUUGCGGAUAAUCGCGUGGAUAUGGCACGCAAGUUUCUACCGGGCACCGUAAAUGUCCGACUGGAGCCGUUCGGGCGGCUAUAAACAGACCUCAGGCCCGAAGCGUGGCGGCACCUGCCGCCGGUGGUAAAAAAGAUCGGAAGAGCACACGUCU [U7C G9U U10G U11C C12G C13G] — lower, 1.11
- GGGUCGUCUAGGUAUAAUCGCGUGGAUAUGGCACGCAAGUUUCUACCGGGCACCGUAAAUGUCCGACUGGAGCCGUUCGGGCGGCUAUAAACAGACCUCAGGCCCGAAGCGUGGCGGCACCUGCCGCCGGUGGUAAAAAAGAUCGGAAGAGCACACGUCU [U8C G9U U10A U11G C12G C13U] — higher, 1.14
- GGGUCGGUGGCUAAUAAUCGCGUGGAUAUGGCACGCAAGUUUCUACCGGGCACCGUAAAUGUCCGACUGGAGCCGUUCGGGCGGCUAUAAACAGACCUCAGGCCCGAAGCGUGGCGGCACCUGCCGCCGGUGGUAAAAAAGAUCGGAAGAGCACACGUCU [U7G U10G U11C C12U C13A] — lower, 1.08
- GGGUCGUUAAUCUAUAAUCGCGUGGAUAUGGCACGCAAGUUUCUACCGGGCACCGUAAAUGUCCGACUGGAGCCGUUCGGGCGGCUAUAAACAGACCUCAGGCCCGAAGCGUGGCGGCACCUGCCGCCGGUGGUAAAAAAGAUCGGAAGAGCACACGUCU [G9A U10A C13U] — higher, 1.5
- GGGUCGAUUGUCGAUAAUCGCGUGGAUAUGGCACGCAAGUUUCUACCGGGCACCGUAAAUGUCCGACUGGAGCCGUUCGGGCGGCUAUAAACAGACCUCAGGCCCGAAGCGUGGCGGCACCUGCCGCCGGUGGUAAAAAAGAUCGGAAGAGCACACGUCU [U7A G9U U10G C13G] — higher, 1.14
- GGGUCGCCGAUCAAUAAUCGCGUGGAUAUGGCACGCAAGUUUCUACCGGGCACCGUAAAUGUCCGACUGGAGCCGUUCGGGCGGCUAUAAACAGACCUCAGGCCCGAAGCGUGGCGGCACCUGCCGCCGGUGGUAAAAAAGAUCGGAAGAGCACACGUCU [U7C U8C U10A C13A] — lower, 1.06
- GGGUCGUCCAGGUAUAAUCGCGUGGAUAUGGCACGCAAGUUUCUACCGGGCACCGUAAAUGUCCGACUGGAGCCGUUCGGGCGGCUAUAAACAGACCUCAGGCCCGAAGCGUGGCGGCACCUGCCGCCGGUGGUAAAAAAGAUCGGAAGAGCACACGUCU [U8C G9C U10A U11G C12G C13U] — lower, 1.09
- GGGUCGCUGCUGCAUAAUCGCGUGGAUAUGGCACGCAAGUUUCUACCGGGCACCGUAAAUGUCCGACUGGAGCCGUUCGGGCGGCUAUAAACAGACCUCAGGCCCGAAGCGUGGCGGCACCUGCCGCCGGUGGUAAAAAAGAUCGGAAGAGCACACGUCU [U7C U10C C12G] — higher, 1.28
